Reference: article PMC12818389, “The Functional Epididymal Amyloid Cystatin‐Related Epididymal Spermatogenic (CRES) is a Component of the Mammalian Brain Extracellular Matrix” (Journal of Neuroscience Research, 2026)

Biological target: the molecule itself
Experiment: SDS-PAGE and Western blot of SDS-resistant high molecular weight forms; 5 ug recombinant CRES monomer alone, 50 mM sodium phosphate pH 8, room temperature 3 h with shaking and silicon beads, no ThT; 25,000 x g pellet in Laemmli buffer, Western blot for CRES

B1: Tag-less full-length mouse CRES C48A protein (recombinant) (natural protein, UniProt P32766 20-142, looked up)
chain: VGVDQSKNEVKAQNYFGSINISNANVKQAVWFAMKEYNKESEDKYVFLVDKILHAKLQITDRMEYQIDVQISRSNCKKPLNNTENCIPQKKPELEKKMSCSFLVGALPWNGEFNLLSKECKDV
notes: Cystatin-related epididymal spermatogenic protein (CRES, Cst8), mouse, called tag-less and full-length; C48A introduced to prevent inappropriate disulfide bond formation; a recombinant form without the signal peptide is possible (surmise); also called CRES monomer; recombinant CRES protein
  binding result: binds
